Measured values as given in paper PMC6381839.

Target: GoxA (glycine oxidase) from Pseudoalteromonas luteoviolacea, glycine-soaked (Gly-GoxA) (Pseudoalteromonas luteoviolacea)
Assay: crystal structure

GoxA (glycine oxidase) from Pseudoalteromonas luteoviolacea, glycine-soaked (Gly-GoxA) (enzyme)
stoichiometry N: 4
